Experimental data from patent US20170342169A1 (published 2017).
Each block holds one binder with its values, some of them ahead of it.

How the values were obtained:
[1] = biological target: CD40 (binding assays of Example 4; species and form not stated) (UniProt P25942 21-193, limits assumed); test: antigen binding, method not stated
[2] = biological target: cynomolgus 4-1BB (cynomolgus); test: SPR
[3] = biological target: T1, human CD40 on cells (HEK293 transfectants, HEK-Blue CD40 reporter cells, human B cells, moDC, PBMC) (human, UniProt P25942 21-277); test: cell-based or functional assay
T1 sequence (P25942 21-277 limits assumed): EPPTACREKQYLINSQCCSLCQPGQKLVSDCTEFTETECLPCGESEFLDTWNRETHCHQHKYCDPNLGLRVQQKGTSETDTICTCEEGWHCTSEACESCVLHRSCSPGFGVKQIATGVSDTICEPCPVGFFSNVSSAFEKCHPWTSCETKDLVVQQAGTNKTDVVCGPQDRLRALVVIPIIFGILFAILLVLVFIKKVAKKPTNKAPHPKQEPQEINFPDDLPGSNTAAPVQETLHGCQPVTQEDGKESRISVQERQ

[4] = biological target: T2, MSLN (Table 10-1; species and form not stated); test: antigen binding, method not stated
T2 construct: also called mesothelin
T2 sequence (Q13421 37-606): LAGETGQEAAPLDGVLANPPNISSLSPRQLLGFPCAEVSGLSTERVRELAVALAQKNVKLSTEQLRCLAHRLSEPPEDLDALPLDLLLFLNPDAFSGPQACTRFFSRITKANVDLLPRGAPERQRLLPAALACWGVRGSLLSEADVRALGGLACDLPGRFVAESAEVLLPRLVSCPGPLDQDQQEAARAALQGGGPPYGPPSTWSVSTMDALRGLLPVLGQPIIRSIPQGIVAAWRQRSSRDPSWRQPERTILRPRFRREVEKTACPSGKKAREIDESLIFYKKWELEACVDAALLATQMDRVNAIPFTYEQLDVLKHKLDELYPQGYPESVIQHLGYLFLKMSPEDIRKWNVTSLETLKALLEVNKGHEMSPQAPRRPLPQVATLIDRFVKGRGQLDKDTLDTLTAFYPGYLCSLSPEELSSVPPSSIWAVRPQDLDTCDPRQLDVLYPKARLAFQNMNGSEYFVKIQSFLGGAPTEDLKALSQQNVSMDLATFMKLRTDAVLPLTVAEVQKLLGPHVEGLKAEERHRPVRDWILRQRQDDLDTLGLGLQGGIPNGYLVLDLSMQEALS

[5] = biological target: T1, human CD40 on cells (HEK293 …); test: cell-based or functional assay; remark: listed apart in the source

CD40 (binding assays of Example 4; species and form not stated), sequence (P25942 21-193 limits assumed): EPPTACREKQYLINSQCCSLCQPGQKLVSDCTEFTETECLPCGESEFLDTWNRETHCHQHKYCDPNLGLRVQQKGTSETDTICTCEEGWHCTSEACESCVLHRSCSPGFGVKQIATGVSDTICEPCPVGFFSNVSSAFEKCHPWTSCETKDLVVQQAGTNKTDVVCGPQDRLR

B1: B39 (bispecific antibody, IgG2)
chain: EVQLQESGPGLVKPSETLSLTCTVSGYSITSNYYWNWIRQPPGKGLEWMGYIRYDGSNNYNPSLKNRVTISRDTSKNQFSLKLSSVTAADTAVYYCARLDYWGQGTTVTVSSDLSGGGGSGGGGSGGGGSGGGGSTGDAVMTQTPLSLSVTPGQPASISCRSSQSLENTNGNTFLNWYLQKPGQSPQLLIYRVSNRFSGVPDRFSGSGSGTDFTLKISRVEAEDVGVYYCLQVTHVPFTFGQGTKLEIKRVERKSSVECPPCPAPPVAGPSVFLFPPKPKDTLMISRTPEVTCVVVDVSHEDPEVQFNWYVDGVEVHNAKTKPREEQFNSTFRVVSVLTVVHQDWLNGKEYKCKVSNKGLPAPIEKTISKTKGQPREPQVYTLPPSREEMTKNQVSLTCLVKGFYPSDIAVEWESNGQPENNYKTTPPMLDSDGSFFLYSKLTVDKSRWQQGNVFSCSVMHEALHNHYTQKSLSLSPGKVDGASSPVNVSSPSVQDIEVQLVQSGAEVKKPGASVKVSCKASGDTFKRYYVHWVRQAPGQGLEWMGIINPSGVSTTYAQKFQGRVTMTRDTSTSTVYMELSSLRSEDTAVYYCAEVRGSGFNYFGMDVWGQGTLVTVSSDLSGGGGSGGGGSGGGGSGGGGSTGSYELTQPPSVSVSPGQTASITCSGDKLGDKYASWYQQKPGQSPVLVIYQDNRRPSGIPERFSGSNSGNTATLTISGTQAMDEADYYCQAWDSDTYVFGTGTKVTVLGQ
notes: huAb9-5 (VH-VL) N-terminal, HuAM15 (VH-VL) C-terminal, huIgG2
EC50 [1]: 0.5 µg/mL

B2: TABBY107-rIgG1 (antibody, V domains shown)
VH: QVKLVQSGAALVKPGASVKMSCKASDYTFNDYWVSWVKQRHGESLEWIGEIYPNSGATNFNGKFRGKATLTVDNPTSTAYMELSRLTSEDSAIYYCTREYTRDWFAYWGQGTLVTVSS
VL: DVVLTQTPSILSATIGQSVSISCRSSQSLLDSDGNTYLYWFLQRPGQSPQRLIYLVSNLGSGVPNRFSGSGSGTDFTLKISGVEAEDLGIYYCMQPTHAPYTFGAGTKLELK
notes: Rat IgG1, kappa
Kd [2]: 0.36 nM
koff [2]: 0.00013 s⁻¹
kon [2]: 350000 M⁻¹ s⁻¹

B4: huAb8-1 (antibody, human IgG1, V domains shown)
VH: EVQLVQSGAEVKKPGSSVKVSCKASGYTFTDYYINWVRQAPGQGLEWIGWIFPGSGSVYCNEQFKGRATLTVDRSTSTAYMELSSLRSEDTAVYFCASSLGKFAYWGQGTLVTVSS
VL: DIQMTQSPSSLSASVGDRVTITCKASQSVVTAVAWYQQKPGKSPKLLIYSASNRYTGVPSRFSGSGSGTDFTLTISSLQPEDFATYFCQQYSSYPYTFGGGTKVEIK
EC50 [1]: 0.4 µg/mL
Maximal activation (OD655) [3]: 0.45 OD655

B6: TABBY106-rIgG1 (antibody, V domains shown)
VH: QVQLQQSGAELAKPGTSVKLSCKASGYTFTSYYIYWVKQRPGQGLEWIGNIWPGNGGTFYGEKFMGKATFTADTSSSTAYMLLGSLTPEDSAYYFCARRPDYSGDDYFDYWGQGVLVTVSS
VL: QVVLTQPKSVSTSLKSTVKLSCKLNSGNIGSYYVHWYQQHAGRSPTTMIYRDDKRPDGVPDRFSGSIDSSSNSAFLTINNVQTEDDAIYFCHSYDSTITPVFGGGTKLTVL
notes: Rat IgG1, lambda
Kd [2]: 18 nM
koff [2]: 0.022 s⁻¹
kon [2]: 1.2e+06 M⁻¹ s⁻¹

B8: CF1 (bispecific antibody, human IgG1, lambda)
heavy: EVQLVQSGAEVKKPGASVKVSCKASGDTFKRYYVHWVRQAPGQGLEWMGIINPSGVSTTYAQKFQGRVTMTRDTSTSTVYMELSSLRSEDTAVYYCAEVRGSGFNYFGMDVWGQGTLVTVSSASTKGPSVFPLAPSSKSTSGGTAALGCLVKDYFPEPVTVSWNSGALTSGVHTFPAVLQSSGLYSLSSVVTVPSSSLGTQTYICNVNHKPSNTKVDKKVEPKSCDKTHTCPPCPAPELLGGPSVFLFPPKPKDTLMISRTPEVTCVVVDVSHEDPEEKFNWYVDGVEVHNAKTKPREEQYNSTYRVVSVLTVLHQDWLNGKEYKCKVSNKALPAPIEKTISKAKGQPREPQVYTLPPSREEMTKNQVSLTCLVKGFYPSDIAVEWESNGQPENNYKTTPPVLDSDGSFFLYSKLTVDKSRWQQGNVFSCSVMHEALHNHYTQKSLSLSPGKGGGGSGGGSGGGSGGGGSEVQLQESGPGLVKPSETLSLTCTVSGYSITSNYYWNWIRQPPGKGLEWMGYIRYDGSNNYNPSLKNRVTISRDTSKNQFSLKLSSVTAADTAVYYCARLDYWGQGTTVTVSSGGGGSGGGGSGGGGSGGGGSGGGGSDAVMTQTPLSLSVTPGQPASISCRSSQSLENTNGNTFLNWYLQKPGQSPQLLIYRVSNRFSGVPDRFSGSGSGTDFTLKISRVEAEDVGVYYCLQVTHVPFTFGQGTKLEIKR
light: SYELTQPPSVSVSPGQTASITCSGDKLGDKYASWYQQKPGQSPVLVIYQDNRRPSGIPERFSGSNSGNTATLTISGTQAMDEADYYCQAWDSDTYVFGTGTKVTVLGQPKAAPSVTLFPPSSEELQANKATLVCLISDFYPGAVTVAWKADSSPVKAGVETTTPSKQSNNKYAASSYLSLTPEQWKSHRSYSCQVTHEGSTVEKTVAPTECS
Max. IL-12p70, dendritic cells [5]: 100 pg/mL

B9: CF3 (bispecific antibody, human IgG1, lambda)
heavy: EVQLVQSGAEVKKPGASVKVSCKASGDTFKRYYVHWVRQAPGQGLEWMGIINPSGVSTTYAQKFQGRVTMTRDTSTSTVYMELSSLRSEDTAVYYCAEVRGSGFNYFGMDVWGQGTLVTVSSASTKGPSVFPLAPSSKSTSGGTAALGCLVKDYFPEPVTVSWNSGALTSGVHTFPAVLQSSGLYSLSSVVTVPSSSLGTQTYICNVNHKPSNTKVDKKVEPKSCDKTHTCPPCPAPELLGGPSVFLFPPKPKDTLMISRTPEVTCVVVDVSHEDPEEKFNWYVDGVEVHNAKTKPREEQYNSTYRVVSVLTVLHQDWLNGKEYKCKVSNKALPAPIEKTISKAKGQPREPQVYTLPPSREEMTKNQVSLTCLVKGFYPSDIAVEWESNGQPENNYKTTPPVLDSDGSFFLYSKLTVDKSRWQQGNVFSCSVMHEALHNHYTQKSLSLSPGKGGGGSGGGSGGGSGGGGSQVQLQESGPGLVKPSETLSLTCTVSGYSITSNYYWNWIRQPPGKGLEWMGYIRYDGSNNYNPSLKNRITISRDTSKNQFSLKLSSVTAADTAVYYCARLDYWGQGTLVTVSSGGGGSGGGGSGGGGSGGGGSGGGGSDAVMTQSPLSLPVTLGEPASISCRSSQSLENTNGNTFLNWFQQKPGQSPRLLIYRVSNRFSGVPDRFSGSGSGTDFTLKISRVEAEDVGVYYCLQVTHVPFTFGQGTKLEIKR
light: SYELTQPPSVSVSPGQTASITCSGDKLGDKYASWYQQKPGQSPVLVIYQDNRRPSGIPERFSGSNSGNTATLTISGTQAMDEADYYCQAWDSDTYVFGTGTKVTVLGQPKAAPSVTLFPPSSEELQANKATLVCLISDFYPGAVTVAWKADSSPVKAGVETTTPSKQSNNKYAASSYLSLTPEQWKSHRSYSCQVTHEGSTVEKTVAPTECS
Max. IL-12p70, dendritic cells [5]: 75 pg/mL

More lines, now with the values ahead:

EC50 [1]: 0.2 µg/mL
Maximal activation (OD655) [3]: 0.67 OD655
B3: huAb9-5 (antibody, human IgG1, kappa)
heavy: not shown
light: DAVMTQTPLSLSVTPGQPASISCRSSQSLENTNGNTFLNWYLQKPGQSPQLLIYRVSNRFSGVPDRFSGSGSGTDFTLKISRVEAEDVGVYYCLQVTHVPFTFGQGTKLEIKRTVAAPSVFIFPPSDEQLKSGTASVVCLLNNFYPREAKVQWKVDNALQSGNSQESVTEQDSKDSTYSLSSTLTLSKADYEKHKVYACEVTHQGLSSPVTKSFNRGEC
notes: human IgG1, kappa

EC50 [4]: 1.39 µg/mL
B5: LB-1 (bispecific antibody, mouse IgG1)
chain: EVQLVESGGGLVQPGRSLKLSCAASGFTFSNYDMAWVRQAPTKGLEWVASISPSGGRTYYRDSVKGRFTVSRDNAKSTLYLQMDSLRSEDTATYYCARHDGSYFDYWGQGVMVTVSSDLSGGGGSGGGGSGGGGSGGGGSTGDTVLTQSPALAVSPGERVTISCRASESVSTLMHWYQQKPGQQPKLLIYLASHLESGVPARFSGSGSGTDFTLTIDPVEADDTATYYCQESWNDPWTFGGGTKLELKRLEVPRDSGSKPCICTVPEVSSVFIFPPKPKDVLTITLTPKVTCVVVDISKDDPEVQFSWFVDDVEVHTAQTQPREEQFNSTFRSVSELPIMHQDWLNGKEFKCRVNSAAFPAPIEKTISKTKGRPKAPQVYTIPPPKEQMAKDKVSLTCMITDFFPEDITVEWQWNGQPAENYKNTQPIMDTDGSYFVYSKLNVQKSNWEAGNTFTCSVLHEGLHNHHTEKSLSHSPGKVDGASSPVNVSSPSVQDIQVQLVQSGAEVKKPGASVKVSCKASGYTFTGNYINWVRQAPGQGLEWMGIINPTKGWTLYAQKFQGRVTMTRDTSISTAYMELSSLRSEDTAVYYCARWHHGTWIFDYWGQGTLVTVSSDLSGGGGSGGGGSGGGGSGGGGSTGDIVLTQPPSVSGAPGQRVTISCSGSSSNIGSNYVSWYQQLPGTAPKLLIYNDNQRPSGVPDRFSGSKSGTSASLAITGLQSEDEADYYCSTYDRRTFSVFGGGTKLTVLG
notes: 1C10 scFv (VH-VL), murine IgG1 hinge-CH2-CH3, MOR06626 scFv (VH-VL)

EC50 [4]: 0.06 µg/mL
B7: anti-MSLN antibody (MOR06626 mIgG1) (antibody, V domains shown)
VH: QVQLVQSGAEVKKPGASVKVSCKASGYTFTGNYINWVRQAPGQGLEWMGIINPTKGWTLYAQKFQGRVTMTRDTSISTAYMELSSLRSEDTAVYYCARWHHGTWIFDYWGQGTLVTVSS
VL: DIVLTQPPSVSGAPGQRVTISCSGSSSNIGSNYVSWYQQLPGTAPKLLIYNDNQRPSGVPDRFSGSKSGTSASLAITGLQSEDEADYYCSTYDRRTFSVFGGGTKLTVLG
